Our source for the protein production values is a protein production outcome set (Wang et al. 2014).

This data set can be described thus: label from the status in PepcDB records.
As for “MKEDYFAEDPKFFNKKLRPKNLDEILKFLKEKFILNDEDKIILITSGGTKVPLEKIEIRNIDNFSTGKRGTLICEYFLKINKKVIFLHRKGSYIPFEYHLKDLAKMENLKVEENNIRFNLTKENERNILIDNLQNYKMYYNNLFLISYDTIFEYGFYLIEISNLLNELMINKYQNTFLLKNIYHKLKQEHNINNLLLYEIFYSTNNILNDMLLFFMSIQNKKCSEISKHQNTSYKLYYKLLLFLNLRFDVYSNNQFFINIQLFFKYIFSLLSNIIQMKEKYNIQQEEIQNIILYIQMLIKNFNSNVLQNNINEQEVIHNNININNIKEEQIIPNNIKNIHNNDNINHCDDNKINNPDNHLLNTDTYILHNNNPSCNDYNLNNLSFNINKYINEEKGKNKKTNQHISEQFLFPTHLVIMCAAASDFYIPYDEMHENKIDSNYSPLSIQLCLTPKFYKIINSHFPLLKYCIFKLEDEEKILIDKSNERIKYTDLLIANLLTQRYDYVYIFKKQFEYVLLKKSNSEQIENDICYEICKHFSIL”, the protein production entry was “failed”.
The entry for “MKEIKYLIPYVIFTSFSYYFAKNGVEQVSPSLFMGIRYLLSGLILLPFAKKLRITKNIILLAIMTSTSTAFWAYGLLYVSPAESAVLSYSMPIFSLPIAFLMVSERPSKVEIIGIVIGFTGVIIYGIPLMKGFTIFGAVLTISNAVFWASFTVFYRKLKEEDPFSTNAMQFLIGSLFLFALVPLDPSHNFSLSFAVDVIWMATLGGALQFILWNFMVKISAVNRITVLAFAVPIFTTILGVILSHEIPSGLAIAGVIIMFTGIFVSRLKGGISIVRETSG” is “failed”.
For “MKEITIALVGQPNVGKSSLINALSNAHLKVGNFAGVTVDKMEVGLIHKEHQITIIDLPGTYALNDFTTEEKVTKDFLEKGQYDLILNVVDSTNLERNLALSAQLLDTNKKMLLALNMWDEAQKEGIKINTEKLSKELGVVCVPTSARSKEDRLNTELLLDEIVRLYSQNTTNNENIKVPSQSFKESLKYSQSAQRIAQLVISENQQNASFEHTYKIDKILMHKRYGIFIFLGFMFIIFSLSFLIGGGVQKALETGFKFLSDGIKENVANEDLASLVGDGIIGGVGATVSFLPLIVVLYFGISLLETTGYMSRVAFLLDGILHKFGLHGKSFIPLITGFGCSVPAYMATRTLQNYNERLITLFVIGFMSCSARLPIYVLFVGSFFPSSSAGFVLFCIYILGAVVALVMAKLLKLSVFKGQTESFIMEMPKYRFPSWRMVYFSIYTKSLSYLKKAGTYILVGAILIWFMSQYPKSDAAMKAYKQESLLVNKDTTLSSEAKEEKLKELKTELDKKNLKNSIVGRGGAYLEKVFSPMDFDWRLSVSLVTGFMAKEVVVSTLGVLFSLGDQNEKSDAFRGILRKEVSVPSGIAFIVFVMFYIPCFAATITFGREAGGIKFVAYLFIFTTVVAYAFSLIAFYATQILV”, the protein production entry was “failed”.
The entry for “MKELLKLDFFIQKKYIKSSIIVFLFLGITFALTQGMNYLYTMGTFIVFYLTIIPIEVERKSKFNIYLNSLPNKKSNYIYSKYLSTLIYIIVVNLFLYLFCTILGVISGSDFTLTLRAILPNIIVQLFYVSLTLPVYMIISHKFYRVVNIIFTILIMMISSILFNSLENENLQVLFNITNGVYGLAFGILALIISLIVSLNIYKKSEVS” is “failed”.
Consider “MKELSDVILDRIDAICDEADLLFEDEKSEEAIAKYNEALTLLPEPIEEYEPSAWLISSIGDVYFFDEEYEKALAQFEHAMGCIDSEDNPYLLLRAGQCHFELGQMQDAEDTMHEAYLIEGEEIFEEEDPKYWEFLKSKITIVDLEHHHHHH”, for which the protein production entry is given as “not failed”.
With “MKENEYRFIMRIFVLVSFTAVLMIAVPFLDTIAFACAFAYMTEPFFNAVRRYAGRTLGAILSILMVTVPALSLVVLILSDVVEFLNTLNVPSLVDTTIQFVNYLGLQNIAQEDLNRILSELWTFLKPTINKMAEQIYGIPLLFIKGLITVFLTYYFLKDGHRFKDAIMPHVPEVYHVQTELFIRKLNEAYKNLFVVNALTSFTVGLISIAGFWAIGLPNPVTLGALSGILTLLPIVGGWTIYMPLSLYYIAVGMYTKAILLFGFGVIFLSLAPDFAIRPRLVNHESDIHPAIALVAFLMGPLALGVTGFALGPLIMGTFDAIFRVKNGKDSIINLK”, the protein production entry is listed as “failed”.
Next, “MKEQSITKGFAILSIASIVAKLLSLIYVPFLTRIVGSVGMGIYGKTYDIFVFVYALTNVGLQTAISKYVSELDAVGNYKDALRAFKISRAFLLVVGTIFTIVLMLSANFIASMSQTPQMVYPIIFLAPTIMITTVLVTYKGYFQGRSQATPIAIATVIEQVANVFLSLLCAYFLIKKSVSLGVAGGTVGSSAGALMAVLYLIYIYNIYGVEKEAKRKQEPGVRRITGKKIARTLFKYGLPITLSTGLQNLGNIIDMLTVSNRLVDAANFSQSDANALYGYFSTRYKILINVPMVFITSLGYMALPAISRAYALKDKKEIKSKINFSMRVTYLLSIPSAFGLALLSENIYRYIFADSNGYKMMVIGAAMIPLTAIVLMQNVILQSVSQFYYVLFTLALSIVVKFTLNMTLVANPDINIYGAVISGMVAFVISLVLNHFRMKKTLKMKISMLKYALKPLLASIYMGIGIILSKYVISLFIDFDKLSLILGIAILLVIIAIGAFMYLHAIIILGGIKKEDIEEISPKLLRVMPRFLRKNIK”: “failed”; “MKETTKKIVSKRLTKVVALVLMCVICTSGVITVTALSRDVTVLDGDKMYGLTTLNANPDAVLDRLGIEVSPEDSIEFDEAAAKITIKRAFDVTVEVDGKAKTVTMTEGTVADALEASKVDLKEGDQVVPFAATSLVPDMEIKVARGVEVTVEADGKSVKVKVPVTATVEAAVAAADFTVGKDDVLSAEKTDTVSAGMTIKLDRVSYRETETTQEIPYESTQEETGELDLGDTQVKTAGENGARTIVTREKLVNGQVVETEEISSTVVKEPVNEVLLVGTREVETAPSYGAASTSGGVLVDHDGNQIAYTAVYTGSATAYTAPAGSFTATGRPAQYGNVAVNPDLIPYGSRLYICSPDGSYVYGYAVAADTGGALMSGSALVDVYFDTLSECYGFGRRTLSVYILA”: “failed”; “MKFALQINEGPYQHQASDSAYQFAKAALEKGHEIFRVFFYHDGVNNSTRLTTPPQDDRHIVNRWAELAEQYELDMVVCVAAAQRRGIVDEGEASRNGKDATNIHPKFRISGLGQLVEAAIQADRLVVFGD”: “not failed”.
The entry for “MKFDDSKPIYKQIVHYIHTEIVTGTYEAGDKLLSVRELATKLEVNPTTIQRAYAELEEAGIIFTVRGTGKYLTEDKRRIEQLENHIAKQLTENFISEMSKLGINKEKIIAWVKKVEEVEVNASGK” is “failed”; for “MKFDVIIIGGSYAGLSAALQLGRARKNILLVDAGERRNRFASHSHGFLGQDGKAPGEIIAEARRQIERYPTIHWVEGRVTDAKGSFGEFIVEIDGGRRETAGRLILAMGVTDELPEIAGLRERWGSAVFHCPYCHGYELDQGKIGVIAASPMAIHHALMLPDWGETTFFTNGIVEPDADQHALLAARGVRVETTRIREIAGHADVVLADGRSIALAGLFTQPKLRITVDWIEKLGCAVEEGPMGSTIVTDPMKQTTARGIFACGDVARPAGSVALAVGDGAMAGAAAHRSILFPEMR” it is “not failed”.
On to “MKFFFLLQIALILLSNSSLLFGQSPPKEKEDSLLLYKEGKFKEAILNTLEEIRLNPSNLDARTILIWSLIAIGEYKRAEKEAIIGLGIKKHDIRIIQALGEAYFFQKNYDNALKYFQEYISLDSKGARIIKVYNLIADSFYELKRYNEADFAYEHALRFSPNNQNLLIKLARSRINAKNKILAEEALIKILTISPNNLEAKNLLEELKKSNNKP”, for which the protein production result is “failed”.
The entry for “MKFGPRRPADAIGGVTVHSLRQNGLLLKKGTTIGPAEVAALEKAGIAEIVVVQLEPGDVSEDVAAADVAGAVAGDGITVDRAFTGRANLFAGRTGVLVIDRAVVDRINAVDEAITLATLPAFKPVVEGEMVATVKLIPFGVESRLRDAAVAAAQGSALRVAPYVIKRVGVVSTLLPGLAPKVIDKTLRVTAERLAPAGAEIIAERRVAHEEAALSAAIKELLGLGADMVIVFGASAIADRRDVIPAAIGTVGGTISHFGMPVDPGNLLLVGSVSGVPVLGAPGCARSPVENGFDWVLMRLLAGLTVTRADITAMGVGGLLMEIVTRPQPRVPVAESGRNVAAIVLAAGRGTRMGGPNKLLADLNGKPLVRIVAEQALASQAARTIIVTGHQAGEVEAALYGLDLTFVHNPDFAQGIASSVKTGIAALGEDADGAIVCLGDMPLIDAALIDRMITAFDPDRGALIVVPVAEGRRGNPVLWSRRFFTELMTLGGDVGARHLIAKHGEAVTEVPVEGEAAFLDIDTPQALDEARRG” is “failed”; for “MKFISTSLLLMLLVSSLSPVQGVLEVYYTSLRCRCVQESSVFIPRRFIDRIQILPRGNGCPRKEIIVWKKNKSIVCVDPQAEWIQRMMEVLRKRSSSTLPVPVFKRKIP” it is “failed”; for “MKFKTNKLSLNLVLASSLLAASIPAFAVTGDTDQPIHIESDQQSLDMQGNVVTFTGNVIVTQGTIKINADKVVVTRPGGEQGKEVIDGYGKPATFYQMQDNGKPVEGHASQMHYELAKDFVVLTGNAYLQQVDSNIKGDKITYLVKEQKMQAFSDKGKRVTTVLVPSQLQDKNNKGQTPAQKKGN” it is “not failed”.
As to “MKFLDNIKKNQSLMRFIETTQSHMVTAEIGNSSVVVAYYLLLSLFPLLIAVGNVLPYLRIDPNSVLPYIAEAIPKDVYKNLEPAIRSLLTQRSGGLLSVSALAAFWSASQSINALQNAMNKAFGVEQRKNFILVRVVSFLVILLFMVAIVGVVVILGLGQYIIELLQPIFHYSTSVIDTFQALKWPLTTVVLLVIMCLIYAVVPNRKLSLRSILPGAIFSTVGWMLLSQIFGLYVKYFSSRIASYQIIGSFIILMLWLNFAATIIILGAIVNAVVDEYLSGDKEKKQPSFEQRLFRWFKKKK”, the protein production entry is listed as “failed”.
The entry for “MKFSFHTCESNYFKDPFFYIMLSISILFSYLFSYYTILKYVSLNATAYDLGIYVSILENTMHGHVMYANPLLINSFSEHFSPFLFVIYPIYWFFPYVKTLLIMQSVMISFSGLVIYLLAREIFFINNFKKDILLEMLALFISTSYILSPYIESPLSFDFHLMPFLILFVPLSFYFFMKKYKILNLIVLILIISLHSLFVIMVFFIISYQFIFRIRNEGNLNCHKIIRTIANINISDNLKKTPKSKYVLQKIVRSKTLIKIIITLILLVGYLYFASLMKTFIASGAVALSPPSTMSTGSVSSSLAGLFTDLFTRPMLIESAFLINFPDKIIFAFYAFANTGFLVFLDPLSLLMDIPYFLYAYLSSYGPYYSLGYQYSTMIIPFIFIGALFGIRKIVQSARATDSDDVRRTIKKILVGVISIVIVSSLFELPLDPISPRNIFIESGSMANFHEFAYNNGSEIAFELQKEIGESDPYLLTINNLYPVFAKDTNAYVIAFAWNSQLRNLIYGYHIEYLVNQPDSFWSNQFNPSMNDLIDNNTFISHYGVYMESFGQDGVIVYKLNYTGLPVLMIPYSAYLPATSFYIAAGEYNYSIVNGSYVYHNTTMGTAWFGPYTTLLPGRYNITYYLESVNSEANSSILLDVTTNAGTVTLNQTVINSSELPNGDLEEVTLHLTLNETKYSVEFRGMAIDWTGTLIFKGVKYSVY” is “failed”; for “MKFSVLMSLYVKEQPAFLAECLASLTAQSYPADEIVILYDGKVTAELEVVVQQYAPILPLKQVRFAENRGLGNTLNDGLKYCSHEWVFRMDSDDICDVDRFAKQVAFIQQHPDVVVFGGQIAEFGQNVQDIVAYRAVPTTHQQIVKFSRFRCPFNHMTVAYQKSKVLAVGGYQGLQEDYTLWIKMIASGFLTANLTDVLVYARVGNGMVGRRRNFTQFKYEWQLYRLKTQAKLHSRIVGLGIFALRAIPRILPLAILQRIYKLLRK” it is “failed”.
